# Measured values reported in publication PMC12583610, “Allosteric control of the bacterial ClpC/ClpP protease and its hijacking by antibacterial peptides” (The EMBO Journal, 2025).
# T1: Staphylococcus aureus ClpP (Staphylococcus aureus), Q2G036
# T1 chain: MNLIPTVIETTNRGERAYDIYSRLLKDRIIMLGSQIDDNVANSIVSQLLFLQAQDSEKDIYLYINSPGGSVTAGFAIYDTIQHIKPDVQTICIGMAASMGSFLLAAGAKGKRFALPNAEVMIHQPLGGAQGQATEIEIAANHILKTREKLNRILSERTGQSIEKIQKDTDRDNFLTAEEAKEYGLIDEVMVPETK
# B1: Staphylococcus aureus ClpP, Q2G036 1-195 (enzyme)
# chain: T1 chain
# How the values were obtained:
# [1] = target: Staphylococcus aureus ClpC wild-type (Staphylococcus aureus) (UniProt Q2G0P5); test: mass photometry
# [2] = target: Staphylococcus aureus ClpC wild-type (Staphylococcus aureus) (UniProt Q2G0P5); test: cross-linking
# [3] = target: Staphylococcus aureus ClpC-F436A (Staphylococcus aureus) (UniProt Q2G0P5); test: dynamic light scattering
# [4] = target: Staphylococcus aureus ClpC-F436A (Staphylococcus aureus) (UniProt Q2G0P5); test: cross-linking
# Mtb ClpC1 = Mtb ClpC1 (Mycobacterium tuberculosis, UniProt P9WPC9)
# [5] = target: T1, Staphylococcus aureus ClpP …; test: negative stain EM; details: remark: other sources report otherwise
molecule,measurement,setting,value
Staphylococcus aureus ClpC wild-type (from UniProt Q2G0P5) (natural protein),stoichiometry N,[1],2
same,stoichiometry N,[2],6
Staphylococcus aureus ClpC-F436A (from UniProt Q2G0P5) (natural protein),stoichiometry N,[3],6
same,stoichiometry N,[4],6
Nc1ncnc2c1ncn2[C@@H]1O[C@H](COP(=O)(O)OP(=O)(O)OP(=O)(O)O)[C@@H](O)[C@H]1O [ATP],coupled PK/LDH NADH ATPase assay,Mtb ClpC1,ATPase activities of Mtb ClpC1-WT and indicated mutants were determined
B1,stoichiometry N,[5],14
